Laboratory results published in the supplement of paper PMC10065799, “High-throughput profiling of sequence recognition by tyrosine kinases and SH2 domains using bacterial peptide display” (eLife, 2023).

Tests used:
FGFR3 = FGFR3 (UniProt P22607); assay: phosphorylation enrichment, bacterial display (enrichment ratio); higher = better substrate or ligand; peptides without Tyr show the background
c-Src = assay: as above
EPHB2 = EPHB2 (UniProt P29323); assay: as above
AncSZ = assay: as above
Fes = Fes (UniProt P07332); assay: as above
Fer (mouse) = assay: as above
Hck = Hck (UniProt P08631); assay: as above
MERTK = MERTK (UniProt Q12866); assay: as above
Fyn = Fyn (UniProt P06241); assay: as above
FGFR1 = FGFR1 (UniProt P11362); assay: as above
Jak2 = Jak2 (UniProt O60674); assay: as above
EPHB1 = EPHB1 (UniProt P54762); assay: as above
c-Abl (mouse) = assay: as above
c-Src SH2 = assay: SH2 binding enrichment of the phosphorylated peptide, bacterial display (enrichment ratio); higher = better substrate or ligand; peptides without Tyr show the background
Grb2 SH2 = Grb2 SH2 (UniProt P62993); assay: as above
SHP2-C SH2 = assay: as above
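Throughout, for SH2 binding enrichment of the phosphorylated peptide, bacterial display: peptide library displayed on the E. coli surface as eCPX fusions, selected cells deep-sequenced, score is each peptide's frequency after selection divided by its frequency in the input.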
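Throughout, for phosphorylation enrichment, bacterial display: 11-residue human phosphosite peptides and single-mutation variants displayed on the E. coli surface, counted by deep sequencing, each peptide's frequency after selection divided by its frequency in the unselected input library; frequency after pTyr selection over input frequency; kinase dosed for 20-30% of maximal phosphorylation in three min.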

Sequence of Jak2 (O60674 whole entry, looked up): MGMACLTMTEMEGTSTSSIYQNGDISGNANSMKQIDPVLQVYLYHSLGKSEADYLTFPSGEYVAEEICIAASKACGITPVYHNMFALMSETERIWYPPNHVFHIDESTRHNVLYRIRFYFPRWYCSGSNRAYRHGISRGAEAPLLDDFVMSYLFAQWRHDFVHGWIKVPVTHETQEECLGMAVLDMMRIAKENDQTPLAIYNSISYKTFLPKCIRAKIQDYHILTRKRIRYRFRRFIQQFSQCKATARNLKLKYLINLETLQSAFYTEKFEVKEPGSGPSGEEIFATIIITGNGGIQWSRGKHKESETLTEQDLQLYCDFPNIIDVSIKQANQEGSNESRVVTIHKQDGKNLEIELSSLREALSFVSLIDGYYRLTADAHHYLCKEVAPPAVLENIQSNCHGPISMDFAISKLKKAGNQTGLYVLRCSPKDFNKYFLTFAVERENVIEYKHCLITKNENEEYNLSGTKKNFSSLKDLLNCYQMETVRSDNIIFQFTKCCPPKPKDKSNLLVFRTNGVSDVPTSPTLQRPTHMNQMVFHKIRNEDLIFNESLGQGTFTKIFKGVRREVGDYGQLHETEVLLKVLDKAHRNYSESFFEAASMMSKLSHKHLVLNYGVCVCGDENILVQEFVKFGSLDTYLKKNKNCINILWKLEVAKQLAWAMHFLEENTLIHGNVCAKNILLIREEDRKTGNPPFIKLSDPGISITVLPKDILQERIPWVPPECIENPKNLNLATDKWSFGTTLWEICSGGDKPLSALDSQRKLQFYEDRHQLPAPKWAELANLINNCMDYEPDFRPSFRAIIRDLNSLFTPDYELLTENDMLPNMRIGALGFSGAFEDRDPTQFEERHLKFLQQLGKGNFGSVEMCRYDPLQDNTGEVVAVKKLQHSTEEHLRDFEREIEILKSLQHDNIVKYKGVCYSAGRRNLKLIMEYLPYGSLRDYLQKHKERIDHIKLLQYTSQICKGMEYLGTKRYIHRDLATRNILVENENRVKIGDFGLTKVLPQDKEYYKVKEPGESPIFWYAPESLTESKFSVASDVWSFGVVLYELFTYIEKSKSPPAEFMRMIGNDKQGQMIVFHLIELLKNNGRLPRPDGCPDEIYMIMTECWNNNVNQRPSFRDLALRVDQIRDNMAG
Sequence of Fes (P07332 whole entry, looked up): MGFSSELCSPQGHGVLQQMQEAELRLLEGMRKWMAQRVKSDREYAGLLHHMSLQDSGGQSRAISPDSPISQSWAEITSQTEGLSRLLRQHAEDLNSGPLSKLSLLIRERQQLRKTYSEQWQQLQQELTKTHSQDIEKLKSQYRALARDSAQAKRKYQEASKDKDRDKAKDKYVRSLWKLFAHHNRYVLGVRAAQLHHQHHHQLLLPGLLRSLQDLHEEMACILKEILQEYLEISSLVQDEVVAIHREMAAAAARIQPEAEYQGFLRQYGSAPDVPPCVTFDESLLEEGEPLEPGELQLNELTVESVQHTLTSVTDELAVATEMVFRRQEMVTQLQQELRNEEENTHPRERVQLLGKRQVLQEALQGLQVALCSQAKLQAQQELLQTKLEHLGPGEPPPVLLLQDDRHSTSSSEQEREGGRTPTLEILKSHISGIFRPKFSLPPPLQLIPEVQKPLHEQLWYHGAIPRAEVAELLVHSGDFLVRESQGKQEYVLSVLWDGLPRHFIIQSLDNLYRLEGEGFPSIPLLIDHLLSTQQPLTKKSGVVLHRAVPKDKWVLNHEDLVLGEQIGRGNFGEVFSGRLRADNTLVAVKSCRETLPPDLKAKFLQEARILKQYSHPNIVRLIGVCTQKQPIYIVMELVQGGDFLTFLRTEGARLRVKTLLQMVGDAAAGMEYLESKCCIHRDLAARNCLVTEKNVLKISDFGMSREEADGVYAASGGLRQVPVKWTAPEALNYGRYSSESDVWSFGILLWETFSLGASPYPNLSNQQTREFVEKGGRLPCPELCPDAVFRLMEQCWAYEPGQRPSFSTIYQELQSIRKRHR
Sequence of Hck (P08631 whole entry, looked up): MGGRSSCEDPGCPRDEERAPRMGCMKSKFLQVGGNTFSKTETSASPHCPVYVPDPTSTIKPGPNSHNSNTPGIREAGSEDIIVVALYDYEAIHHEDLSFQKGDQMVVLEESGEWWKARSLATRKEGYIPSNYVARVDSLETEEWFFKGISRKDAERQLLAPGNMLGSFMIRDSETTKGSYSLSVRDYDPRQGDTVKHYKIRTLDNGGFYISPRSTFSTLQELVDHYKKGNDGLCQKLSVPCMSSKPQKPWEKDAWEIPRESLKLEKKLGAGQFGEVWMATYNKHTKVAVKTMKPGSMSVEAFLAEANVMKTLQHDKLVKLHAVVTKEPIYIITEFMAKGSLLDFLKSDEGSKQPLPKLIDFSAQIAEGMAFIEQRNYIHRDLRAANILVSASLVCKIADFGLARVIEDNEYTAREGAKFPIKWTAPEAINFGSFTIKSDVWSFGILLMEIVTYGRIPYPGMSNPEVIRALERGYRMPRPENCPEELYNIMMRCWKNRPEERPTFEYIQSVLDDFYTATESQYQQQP
Sequence of FGFR1 (P11362 whole entry, looked up): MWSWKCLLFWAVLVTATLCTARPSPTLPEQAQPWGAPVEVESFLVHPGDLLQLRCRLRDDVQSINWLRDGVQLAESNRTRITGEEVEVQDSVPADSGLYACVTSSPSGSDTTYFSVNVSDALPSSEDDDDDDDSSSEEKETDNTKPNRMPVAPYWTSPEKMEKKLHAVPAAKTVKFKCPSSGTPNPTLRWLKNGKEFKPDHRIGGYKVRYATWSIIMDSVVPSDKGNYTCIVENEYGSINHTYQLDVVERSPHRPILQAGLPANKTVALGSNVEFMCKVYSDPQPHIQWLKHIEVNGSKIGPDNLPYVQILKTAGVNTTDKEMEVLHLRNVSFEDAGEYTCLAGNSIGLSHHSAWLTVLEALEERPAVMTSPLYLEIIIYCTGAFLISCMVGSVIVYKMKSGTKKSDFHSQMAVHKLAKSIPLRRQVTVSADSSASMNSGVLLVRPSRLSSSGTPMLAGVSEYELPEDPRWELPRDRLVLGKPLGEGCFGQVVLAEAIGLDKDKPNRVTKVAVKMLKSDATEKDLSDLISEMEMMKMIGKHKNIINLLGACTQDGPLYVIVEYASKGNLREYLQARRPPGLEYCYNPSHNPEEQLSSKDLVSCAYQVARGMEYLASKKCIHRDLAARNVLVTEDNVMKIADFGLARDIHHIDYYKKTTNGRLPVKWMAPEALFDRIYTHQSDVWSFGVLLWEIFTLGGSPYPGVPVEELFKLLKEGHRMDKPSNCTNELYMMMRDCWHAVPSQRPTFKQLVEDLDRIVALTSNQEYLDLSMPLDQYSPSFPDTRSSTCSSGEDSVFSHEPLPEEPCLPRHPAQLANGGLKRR
Sequence of EPHB1 (P54762 whole entry, looked up): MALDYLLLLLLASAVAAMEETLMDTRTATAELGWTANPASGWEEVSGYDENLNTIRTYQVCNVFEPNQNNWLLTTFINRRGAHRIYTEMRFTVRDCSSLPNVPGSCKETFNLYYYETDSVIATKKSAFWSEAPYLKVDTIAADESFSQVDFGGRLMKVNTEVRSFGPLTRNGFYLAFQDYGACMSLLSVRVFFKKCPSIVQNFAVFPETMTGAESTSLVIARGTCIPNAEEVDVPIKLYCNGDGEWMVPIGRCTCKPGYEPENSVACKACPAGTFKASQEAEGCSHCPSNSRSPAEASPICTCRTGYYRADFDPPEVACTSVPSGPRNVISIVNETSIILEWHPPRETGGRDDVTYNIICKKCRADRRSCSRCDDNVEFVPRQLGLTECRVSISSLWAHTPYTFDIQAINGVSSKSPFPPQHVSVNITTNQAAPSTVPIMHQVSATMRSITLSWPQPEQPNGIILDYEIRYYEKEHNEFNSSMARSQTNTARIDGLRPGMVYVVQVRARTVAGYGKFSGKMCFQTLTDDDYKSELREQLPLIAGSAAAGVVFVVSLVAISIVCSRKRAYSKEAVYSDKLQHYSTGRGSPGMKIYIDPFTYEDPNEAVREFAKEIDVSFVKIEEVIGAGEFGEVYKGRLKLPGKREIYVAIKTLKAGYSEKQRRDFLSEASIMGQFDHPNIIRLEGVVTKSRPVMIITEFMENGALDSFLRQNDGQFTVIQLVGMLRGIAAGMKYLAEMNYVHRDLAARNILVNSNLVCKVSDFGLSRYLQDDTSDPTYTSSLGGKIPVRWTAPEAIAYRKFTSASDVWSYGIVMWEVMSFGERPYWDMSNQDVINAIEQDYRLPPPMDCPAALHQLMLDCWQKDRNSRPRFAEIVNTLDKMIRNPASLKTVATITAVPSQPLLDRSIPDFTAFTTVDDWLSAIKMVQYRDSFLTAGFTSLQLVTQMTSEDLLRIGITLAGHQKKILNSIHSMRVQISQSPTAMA
Sequence of Fyn (P06241 whole entry, looked up): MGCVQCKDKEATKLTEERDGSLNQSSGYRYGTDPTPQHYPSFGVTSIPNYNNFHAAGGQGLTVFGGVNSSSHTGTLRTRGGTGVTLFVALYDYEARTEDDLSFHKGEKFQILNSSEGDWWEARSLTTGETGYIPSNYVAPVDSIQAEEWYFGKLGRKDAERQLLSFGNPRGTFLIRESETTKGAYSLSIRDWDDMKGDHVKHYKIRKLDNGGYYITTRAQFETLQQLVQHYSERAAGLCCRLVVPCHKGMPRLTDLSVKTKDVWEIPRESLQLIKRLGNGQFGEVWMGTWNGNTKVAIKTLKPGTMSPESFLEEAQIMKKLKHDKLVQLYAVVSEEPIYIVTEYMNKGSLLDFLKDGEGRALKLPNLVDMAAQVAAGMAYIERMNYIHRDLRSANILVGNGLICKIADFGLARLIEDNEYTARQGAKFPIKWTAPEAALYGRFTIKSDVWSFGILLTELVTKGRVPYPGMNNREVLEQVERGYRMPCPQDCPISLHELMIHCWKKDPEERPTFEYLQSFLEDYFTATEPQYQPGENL

SH2 binding enrichment (c-Src SH2)	SH2 binding enrichment (Grb2 SH2)	SH2 binding enrichment (SHP2-C SH2)	Sequence	phosphorylation enrichment (FGFR3)	phosphorylation enrichment (c-Src)	phosphorylation enrichment (EPHB2)	phosphorylation enrichment (AncSZ)	phosphorylation enrichment (Fes)	phosphorylation enrichment (Fer (mouse))	phosphorylation enrichment (Hck)	phosphorylation enrichment (MERTK)	phosphorylation enrichment (Fyn)	phosphorylation enrichment (FGFR1)	phosphorylation enrichment (Jak2)	phosphorylation enrichment (EPHB1)	phosphorylation enrichment (c-Abl (mouse))
0.378	0.965	0.428	RKRQFYLYKGK [RSPO4_Y112_C107R]	0.4	0.44	0.615	0.613	0.432	0.494	0.358	0.602	0.503	0.437	0.228	0.343	0.296
1.66	2.61	1.82	RLLVVYPWTQG [HBG2_Y36_R41G]	0.58	0.305	0.378	0.894	0.932	0.289	0.416	0.27	0.499	0.603	0.987	0.542	0.593
0.796	5.31	0.986	RLNAIYQNNLT [GSR_Y158]	0.665	1.08	0.609	0.813	0.75	1.06	1.25	0.414	0.772	0.502	0.565	0.632	0.539
0.422	0.714	0.406	RMSSSYPTGLA [ADM_Y52]	0.613	0.334	0.447	0.525	0.542	0.502	0.509	0.433	0.525	0.562	0.473	0.37	0.518
0.428	0.664	0.514	RNFDTYTAGLS [RHBDD1_Y264_YF]	0.355	1.15	3.55	0.62	0.802	0.394	3.7	0.452	0.9	0.407	0.511	1.9	0.436
0.457	0.94	0.194	RNLLIYTEFGK [HGD_Y166_G161R]	0.945	4.93	1.12	1.4	1.22	0.827	5.2	5.3	8.15	0.583	0.997	2.86	2.48
1.29	0.729	0.422	RPDSPYSRPHD [DOK2_Y271]	0.485	0.372	0.49	0.71	0.519	0.379	0.367	0.369	0.317	0.364	0.436	0.258	0.419

The next lines start with the sequence.

Sequence	SH2 binding enrichment (c-Src SH2)	SH2 binding enrichment (Grb2 SH2)	SH2 binding enrichment (SHP2-C SH2)	phosphorylation enrichment (FGFR3)	phosphorylation enrichment (c-Src)	phosphorylation enrichment (EPHB2)	phosphorylation enrichment (AncSZ)	phosphorylation enrichment (Fes)	phosphorylation enrichment (Fer (mouse))	phosphorylation enrichment (Hck)	phosphorylation enrichment (MERTK)	phosphorylation enrichment (Fyn)	phosphorylation enrichment (FGFR1)	phosphorylation enrichment (Jak2)	phosphorylation enrichment (EPHB1)	phosphorylation enrichment (c-Abl (mouse))
RKNAKYLLKGE [CDH5_Y82]	0.749	1.19	1.06	0.545	0.687	0.821	0.779	1.37	0.666	0.577	0.718	0.64	0.712	0.827	0.848	0.901
RLAKRYLIWEC [SCN5A_Y694_Q692K]	0.704	0.911	0.654	0.812	0.486	0.604	1.15	1.06	0.626	0.505	0.503	0.375	0.64	0.852	0.607	0.771
RLLVIYPWTQR [HBG2_Y36_V35I]	1.31	1.97	1.49	1.03	0.588	0.639	1.98	1.46	0.498	0.635	0.58	0.793	0.594	1.12	0.836	0.907
RLQAAYNLVKR [PFKM_Y103_R100Q]	1.51	1.86	2.08	0.489	0.526	0.388	0.787	1.19	0.494	0.633	0.541	0.731	0.525	0.866	0.59	0.853
RNGDRYFKEIV [DCX_Y64_G67E]	0.393	0.749	0.588	1.51	0.559	0.626	0.546	0.705	0.472	0.559	0.514	0.572	0.703	0.469	0.55	0.548
RNIQQYNSFVS [PRKAR1A_Y373]	0.602	0.782	0.683	0.787	0.589	0.611	0.768	0.743	0.534	0.64	0.457	0.648	0.573	0.667	0.391	0.986
RNNTEYVRDIG [MUSK_Y577_I575T]	0.745	0.834	0.645	0.427	0.328	0.41	0.717	0.582	0.302	0.428	0.33	0.496	0.418	0.364	0.422	0.479
RPFVFYFSFLL [PTEN_Y177_R173P_YF]	0.918	2.27	1.02	0.835	0.982	0.483	1.29	1.29	0.587	0.867	0.641	0.76	0.589	1.55	0.838	1.29
RQGQAYRGQRV [TSHR_Y706_A703G]	0.489	0.552	0.334	0.447	0.453	0.339	0.718	0.805	0.649	0.47	0.454	0.509	0.452	0.48	0.338	0.458
